Experimental data from the nanobody polyreactivity screen of Harvey et al. (2022).

Assay: yeast display, Sf9 membrane polyspecificity reagent, FACS + sequencing; frameworks hold sequencing errors
Summary of the method: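 Using colony PCR, genes from sorted yeast display clones were amplified, then sequenced on MiSeq at 2 × 250 and filtered by CDR length. The clones had been stained with 10% biotinylated, detergent-solubilized Sf9 membrane reagent for 1 hour at 4 °C and sorted by FACS into low and high (top ~1%) gates on anti-HA and streptavidin fluorescence. Polyreactivity labels come from the gate of origin.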

Row | Sequence | polyreactivity (PSR sort gate)
1 | QVQLVESGGGLVQAGGSLRLSCAASGITFAYYAMGWYRQAPGKERELVAAITRRGSSTYYADSVKGRFTISRDNAKNTVYLQMNSLKPEDTAVYYCAAVAYGRERYDYWGQGTQVTVSS | high polyreactivity
2 | QVQLVESGGGLVQAGGSLRLSCAASGITFAYYARGWYRQAPGKERELVAAITGDGGYTYYADSVKGRFTISRDNAKNTVYLQMNSLKPEDTAVYYCNAELSDYRYDWWDYDYWGQGTQVTVSS | high polyreactivity
3 | QVQLVESGGGLVQAGGSLRLSCAASGITFDGNAMGWYRQAPGKERELVAAITSGGSTYYADSVKGRFTISRDNAKNTVYLQMNSLKPEDTAVYYCAKEPPPVKGDYWGQGTQVTVSS | low polyreactivity
4 | QVQLVESGGGLVQAGGSLRLSCAASGITFDGYAMGWYRQAPGKERELVAAIRSSGGSTYYADSVKGRFTISRDNAKNTVYLQMNSLKPEDTAVYYCATDHAQKFRYRSPREYWGQGTQVTVSS | low polyreactivity
5 | QVQLVESGGGLVQAGGSLRLSCAASGITFDGYAMGWYRQAPGKESELVAGISWSGARSYYADSVKGRFTISRDNAKYTVYLHMNSLKPEDTAVYYCNKVSLRNHGGYDYWGQGTQVTVSS | high polyreactivity
6 | QVQLVESGGGLVQAGGSLRLSCAASGITFDKYAMGWYRQAPGKERELVAAISGSDGSTYYADSVKGRFTISRDNAKNTVYLQMNSLKPEDTAVYYCAAESEYAGTYEYDYWGQGTQVTVSS | low polyreactivity
7 | QVQLVESGGGLVQAGGSLRLSCAASGITFDLYAMGRYRQAPGKERELVAASTYYADSVKGRFTISRDNAKNTVYLQMNSLKPEDTAVYFCNTREPVTYDYWGQGTQVTVSS | high polyreactivity
8 | QVQLVESGGGLVQAGGSLRLSCAASGITFDLYDMGWYRQAPGKERELVAAITDADSTYYADSVKGRFTISRDNAKNTVYLQMNSLKPADTAVYYCAADFFYSVYSGHYDYWGQGTQVTVSS | low polyreactivity
9 | QVQLVESGGGLVQAGGSLRLSCAASGITFDRNVMGWYRKSPGKETELVAAISKSGGRTYYADSVKGRFTISRDIAKNTVYLQMNSLKTEDTAVYDCNADFYSRKSLHQYDYWGQGTQVTVSS | high polyreactivity
10 | QVQLVESGGGLVQAGGSLRLSCAASGITFDRYAMAWYRHAPGKERELVAAITSSGGRTYYADSVKGRFTISRDNAKNTVYLQMNSLKPEDTAVYYCNTPWQNRADSHRDYWGQGTQVTVSS | high polyreactivity
11 | QVQLVESGGGLVQAGGSLRLSCAASGITFDSNAMGWYRQAPGKERELVAVISSSGGSTNYADSVKGRFTISRDNAKNTVYLQMKSLKPEDTAVYYCAADYRFYYTRWEYSFNYWGQGTQVTVSS | high polyreactivity
12 | QVQLVESGGGLVQAGGSLRLSCAASGITFDYYAMGWYRPAPGKERELVAAISGSGARTYYADSVKGRFTISRDTAKNTFYLQMNSLKPEDTAVYYCAAEYYTVPPGGIEDYWGQGTQVTVSS | high polyreactivity
13 | QVQLVESGGGLVQAGGSLRLSCAASGITFEDYAMGWYRQAPGKERELVAAISWSGDITYYADSVKGRFTISRDNAKNTVYLQMNSLKPVDTAVYYCAADLSPYGYDYWGQGTQVTVSS | low polyreactivity
14 | QVQLVESGGGLVQAGGSLRLSCAASGITFEGYAMGWYRQAPGKERELVAAIRSSGTSTYYADSVKGRFTISRDNAKNTVYLQMYSLKPEDTAVYYCNRARSSSRYDYWGQGTQVTVSS | low polyreactivity
15 | QVQLVESGGGLVQAGGSLRLSCAASGITFEVYAMGWYRQAPGKERELVAVITSVGSTNYADSVKGRFTISRDNAKNTVYLQMNSLKPEDTAVYFCAAEKWTVRRFNPYTYYRFDYWGHGTQVTVSS | low polyreactivity
16 | QVQLVESGGGLVQAGGSLRLSCAASGITFFLYAMGWYRQAPGKERELVAVISASGGSTYYADSVKGRFTISRDNAKNTVYLQMNSLKPEDTAVYYCAAGYRFYGFYAHDYWGQGTQVTVSS | high polyreactivity
17 | QVQLVESGGGLVQAGGSLRLSCAASGITFFPYAMGWYRQAPGKERELVASISDGGGTNYADSVKGRFTISRDNAKNTVYFQMNSLKPEDTAVYYCATDASTYAYYGGDYWGQGTQVTVSS | low polyreactivity
